# Reference: article PMC7660911
# Several values for one entry are separate records, joined by “and”; a condition that tells them apart may be missing. Equal entries are not always repeated.
# Target: pVHL172-BirA(R118G)-HA fusion protein (human) (UniProt P40337)
# Assay: proximity labelling; BioID with truncated VHL-BirA constructs in HeLa and 786-O cells; blots quantified as biotinylated prefoldin / pVHL expression level, full-length VHL213-BirA set as 1 (Fig 1C)
row,fold lower binding than with the exons 2&3 version,Substance
1,4 fold and 5 fold,Prefoldin subunit 3 (from UniProt P61758-1 1-197) (natural protein)
2,4 fold and 5 fold,Prefoldin subunit 1 (from UniProt O60925 1-122) (natural protein)
